Measured values as given in patent EP4473018A2 (dated 2024).

Columns and labels:
[1] = target: T1, rat B7-H3 antigen protein (Sino Biologicals; Cat. No. 80380-R02H-20) (rat, UniProt Q7TPB4 29-248); assay: ELISA, antigen coated at 50 ng/well
T1 construct: Bought protein
T1 sequence (looked up): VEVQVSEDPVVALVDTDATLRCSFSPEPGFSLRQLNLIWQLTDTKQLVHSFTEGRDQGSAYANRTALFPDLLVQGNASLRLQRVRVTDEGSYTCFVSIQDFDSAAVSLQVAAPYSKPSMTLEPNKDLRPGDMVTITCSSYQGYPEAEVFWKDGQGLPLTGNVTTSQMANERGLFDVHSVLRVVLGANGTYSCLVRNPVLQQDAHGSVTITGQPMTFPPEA

[2] = target: T2, Human B7-H3 protein (UniProt Q5ZPR3-1) on cells (human, UniProt Q5ZPR3 29-534); assay: flow cytometry on human osteosarcoma U2OS cells
T2 construct: This is endogenous B7-H3 on U2OS, SK-N-BE(2), A375, A549 and Panc-1 cells, on monocyte-derived dendritic cells and in patient tumour tissue; also called CD276; surface antigen expressed by human cancer cells
T2 sequence: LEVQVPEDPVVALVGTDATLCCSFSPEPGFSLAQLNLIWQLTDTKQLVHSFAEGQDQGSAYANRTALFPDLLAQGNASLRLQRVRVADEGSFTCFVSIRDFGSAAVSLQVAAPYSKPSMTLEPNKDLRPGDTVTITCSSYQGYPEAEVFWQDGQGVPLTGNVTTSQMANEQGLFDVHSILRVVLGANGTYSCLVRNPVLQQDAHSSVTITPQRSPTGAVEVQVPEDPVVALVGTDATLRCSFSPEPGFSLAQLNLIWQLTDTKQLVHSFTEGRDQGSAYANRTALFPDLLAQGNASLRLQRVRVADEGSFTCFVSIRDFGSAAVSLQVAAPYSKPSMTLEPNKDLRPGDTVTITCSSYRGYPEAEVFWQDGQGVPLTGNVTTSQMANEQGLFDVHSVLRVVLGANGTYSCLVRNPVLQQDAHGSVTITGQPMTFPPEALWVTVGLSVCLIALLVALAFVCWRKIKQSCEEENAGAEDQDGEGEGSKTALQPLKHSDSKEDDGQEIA

[3] = target: T3, Recombinant truncated human his-tag B7-H3 protein (amino acids 1-461 of SEQ ID NO:1 with a carboxy terminal … (human, UniProt Q5ZPR3 29-461)); assay: SPR (Biacore T200), antibody captured by anti-human Fc, his-tagged B7-H3 as analyte from 100 nM, 1:1 model
T3 construct: also called his-tagged B7-H3 protein; recombinant human his-tagged B7-H3 protein
T3 sequence: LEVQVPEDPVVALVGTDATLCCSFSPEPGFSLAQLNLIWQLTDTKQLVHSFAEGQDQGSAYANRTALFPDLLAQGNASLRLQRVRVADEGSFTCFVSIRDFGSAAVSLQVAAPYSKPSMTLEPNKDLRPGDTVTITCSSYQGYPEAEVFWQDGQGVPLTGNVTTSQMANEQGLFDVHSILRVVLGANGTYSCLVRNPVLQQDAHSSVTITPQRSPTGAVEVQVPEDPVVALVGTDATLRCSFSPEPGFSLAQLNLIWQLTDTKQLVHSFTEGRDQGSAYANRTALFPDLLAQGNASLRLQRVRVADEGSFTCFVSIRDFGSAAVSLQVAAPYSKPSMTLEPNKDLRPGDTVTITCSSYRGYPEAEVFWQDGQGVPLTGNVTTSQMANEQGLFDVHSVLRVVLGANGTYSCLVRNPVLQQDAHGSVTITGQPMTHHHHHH

[4] = target: T3, Recombinant truncated human his-tag …; assay: SPR (BIAcore 3000), antibody captured by anti-human Fc, his-tagged B7-H3 as analyte from 100 nM, 1:1 model
human B7-H6 = target: T4, human B7-H6 (human, UniProt Q68D85 25-262); assay: ELISA, antigen coated at 50 ng/well, antibody serially diluted
T4 construct: Bought protein; also called NCR3LG1
T4 sequence (looked up): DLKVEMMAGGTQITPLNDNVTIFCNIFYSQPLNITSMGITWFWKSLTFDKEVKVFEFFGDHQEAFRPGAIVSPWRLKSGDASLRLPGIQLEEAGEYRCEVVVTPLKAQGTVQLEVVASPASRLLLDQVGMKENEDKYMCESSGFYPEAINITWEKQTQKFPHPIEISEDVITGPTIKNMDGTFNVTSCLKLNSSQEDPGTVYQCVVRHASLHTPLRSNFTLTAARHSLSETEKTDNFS

human B7-H7 = target: T5, human B7-H7 (human, UniProt Q9UM44 23-344); assay: as above
T5 construct: Bought protein; also called HHLA2
T5 sequence (looked up): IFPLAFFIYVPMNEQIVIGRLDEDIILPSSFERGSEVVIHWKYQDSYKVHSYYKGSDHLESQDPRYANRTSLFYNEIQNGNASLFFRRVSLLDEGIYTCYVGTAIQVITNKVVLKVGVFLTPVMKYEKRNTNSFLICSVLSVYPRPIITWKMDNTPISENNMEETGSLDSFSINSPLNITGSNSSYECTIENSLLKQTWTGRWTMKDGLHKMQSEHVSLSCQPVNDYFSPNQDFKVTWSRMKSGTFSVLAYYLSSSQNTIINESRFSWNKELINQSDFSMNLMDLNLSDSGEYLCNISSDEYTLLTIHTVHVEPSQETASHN

human B7.1 = target: T6, human B7.1 (human, UniProt P33681 35-242); assay: as above
T6 construct: Bought protein; also called CD80
T6 sequence (looked up): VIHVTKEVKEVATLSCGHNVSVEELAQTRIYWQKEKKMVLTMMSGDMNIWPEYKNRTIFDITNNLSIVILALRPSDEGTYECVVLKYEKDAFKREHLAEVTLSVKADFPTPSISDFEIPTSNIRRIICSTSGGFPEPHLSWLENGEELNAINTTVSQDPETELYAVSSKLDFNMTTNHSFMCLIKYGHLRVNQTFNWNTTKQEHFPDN

human B7.2 = target: T7, human B7.2 (human, UniProt P42081 24-247, limits assumed); assay: as above
T7 construct: Bought protein; also called CD86
T7 sequence (looked up): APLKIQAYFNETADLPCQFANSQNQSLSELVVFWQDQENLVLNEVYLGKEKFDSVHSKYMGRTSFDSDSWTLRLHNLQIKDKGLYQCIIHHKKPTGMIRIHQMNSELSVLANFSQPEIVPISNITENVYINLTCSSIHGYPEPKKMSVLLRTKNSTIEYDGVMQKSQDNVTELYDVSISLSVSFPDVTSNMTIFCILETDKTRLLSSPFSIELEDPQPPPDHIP

human B7-H1 = target: T8, human B7-H1 (human, UniProt Q9NZQ7 19-239); assay: as above
T8 construct: Bought protein; also called PD-L1; CD274
T8 sequence (Q9NZQ7 19-239 limits assumed): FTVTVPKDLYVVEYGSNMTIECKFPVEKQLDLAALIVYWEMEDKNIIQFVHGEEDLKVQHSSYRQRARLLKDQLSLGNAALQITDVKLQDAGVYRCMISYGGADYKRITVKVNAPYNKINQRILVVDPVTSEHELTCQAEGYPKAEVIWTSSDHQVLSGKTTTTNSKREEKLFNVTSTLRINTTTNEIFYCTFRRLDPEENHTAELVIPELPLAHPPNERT

human B7-H2 = target: T9, human B7-H2 (human, UniProt O75144 19-258, limits assumed); assay: as above
T9 construct: Bought protein; also called ICOSL
T9 sequence (looked up): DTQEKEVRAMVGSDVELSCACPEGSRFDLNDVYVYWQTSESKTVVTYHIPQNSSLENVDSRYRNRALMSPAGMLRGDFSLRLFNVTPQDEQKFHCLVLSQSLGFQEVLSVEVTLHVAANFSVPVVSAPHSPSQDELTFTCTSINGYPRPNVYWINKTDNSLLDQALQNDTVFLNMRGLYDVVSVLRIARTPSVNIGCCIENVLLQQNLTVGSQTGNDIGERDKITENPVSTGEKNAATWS

human B7-H4 = target: T10, human B7-H4 (human, UniProt Q7Z7D3 25-258, limits assumed); assay: as above
T10 construct: Bought protein; also called B7S1; B7x
T10 sequence (looked up): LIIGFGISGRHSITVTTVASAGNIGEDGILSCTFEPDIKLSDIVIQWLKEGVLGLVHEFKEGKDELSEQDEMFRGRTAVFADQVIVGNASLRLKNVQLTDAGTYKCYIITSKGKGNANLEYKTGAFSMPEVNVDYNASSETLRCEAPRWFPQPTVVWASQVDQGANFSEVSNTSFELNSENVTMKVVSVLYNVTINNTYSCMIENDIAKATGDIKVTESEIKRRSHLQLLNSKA

human B7-H5 = target: T11, human B7-H5 (human, UniProt Q9H7M9 33-194); assay: as above
T11 construct: Bought protein; also called VISTA; GI24

B1: Enoblituzumab (B7-H3 Macrogenics; MGA271; MG-B7-H3) (antibody, human IgG1, kappa, V domains shown)
VH: EVQLVESGGGLVQPGGSLRLSCAASGFTFSSFGMHWVRQAPGKGLEWVAYISSDSSAIYYADTVKGRFTISRDNAKNSLYLQMNSLRDEDTAVYYCGRGRENIYYGSRLDYWGQGTTVTVSS
VL: DIQLTQSPSFLSASVGDRVTITCKASQNVDTNVAWYQQKPGKAPKALIYSASYRYSGVPSRFSGSGSGTDFTLTISSLQPEDFATYYCQQYNNYPFTFGQGTKLEIKR
notes: also called B7-H3 MG; Macrogenics' B7-H3
[1]
  binding result: binds
[2]
  binding result: binds
[3]
  binding result: binds

B2: B3-A6 (antibody, V domains shown)
VH: QVQLQQSGPGLVKPSQTLSLTCAISGDSVSSNSAAWNWIRQSPSRGLEWLGRTYYRSKWYNDYAVSVKSRITINPDTSKNQFSLQLNSVTPEDTAVYYCAREGIAVAALWDWGQGTLVTVSS
VL: QAVLTQPPSASGTPGQRVTISCSGSSSNIGSNYVSWYQQLPGTAPKLLMYSNNHRPSGVPDRFSGSKSGTSASLAISGLRTEDEADYYCAAWDDSLSGQVFGGGTKLTVL
notes: It was captured by anti-human Fc, so it was tested as an antibody with a human Fc
[4]
  binding result: binds

B3: B3-4F7 (antibody, V domains shown)
VH: QVQLVQSGAEVKKPGASVKVSCKASGYTFTSYGISWVRQAPGQGLEWMGWISAYNGNTNYAQKLQGRVTMTTDTSTSTAYMELRSLRSDDTAVYYCARDGYYGSGSHPWGQGTLVTVSS
VL: QSVVTQPPSVSGAPGQRVTISCTGNSSNIGAGYDVHWYQQLPGTAPKLLIYGNSNRPSGIPDRFSGSKSGTSATLGITGLQTGDEADYYCGTWDSSLSAGVFGTGTKVTVL
notes: It was captured by anti-human Fc
[4]
  binding result: binds

B4: B3-D1 (antibody, V domains shown)
VH: EVQLVQSGAELKKPGASVKVSCKASGHTFTSYYIHWVRQAPGQGLEWMGIINPSGDSTSYAQKFQGRVTMTRDTSTSTVYMELSSLTSEDTAVYYCARAIDYGGPYWYLDLWGRGTLVTVSS
VL: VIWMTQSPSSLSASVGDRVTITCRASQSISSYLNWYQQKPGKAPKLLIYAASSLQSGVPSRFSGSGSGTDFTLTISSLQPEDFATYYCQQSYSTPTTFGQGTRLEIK
notes: as for B3
[4]
  binding result: binds

B5: B3-2H1 (antibody, V domains shown)
VH: QVQLQQSGAEVEKPGASVEVSCRASGYTFTSYYIHWVRQAPGQGLEWVGMITPLSGGTTYAQKFQGRVTMTRDTSTSTVYMNLSSLRSEDTAVYFCARGGRAVASSFEFWGQGTLVTVSS
VL: QSVLTQPRSVSGSPGQSVTISCTGTSSDVGGYNYVSWYQQHPGKAPKLMIYDVSKRPSGVPDRFSGSKSGNTASLTISGLQAEDEADYYCCSYAGSYTEVFGTGTKVTVL
notes: as for B3
[4]
  binding result: binds

B6: B3-2E3 (antibody, V domains shown)
VH: QVQLVESGGGVVQPGRSLRLSCVASEFTFSSYTIHWVRQAPGKGLEWVAVISHDGSNKYYADSVKGRFTISRDNSKNTLYLQMSSLRAEDTAVYYCAGDRYVYNYYGMDVWGQGTTVTVSS
VL: DIVMTQSPSSLSAYVGDRVTITCRASQDIRTYLAWYQQKPGTAPKLLISGASILRSGVPSRFSGSGSGRDFTLSITSLQPEDFATYYCQQLYSYPPWTFGQGTKVEIK
notes: as for B3
[4]
  binding result: binds

B7: anti-B7-H3 antibody (VA clone) (antibody, V domains shown)
VH: QVQLVQSGAEVKKPGASVKVSCKASGYTFTDSYMHWVRQAPGQGLEWMGWISPRTGGTDYAQKFQGRVTMTRDTSISTAYMELSRLRSDDTAVYYCARGSSRGNDYWGQGTLVTVSS
VL: QSVLTQPASVSGSPGQSITISCTGTGSDVGGYNYVSWYQQHPGKAPKLIIYDVTKRPSGFSNRFSGSKSGNTASLTISGLQAEDEADYYCSSYTSRRTYVFGTGTKLTVL
notes: It was tested as a fully human IgG ('IgG protein', captured by anti-human Fc); also called B7-H3-VA; B7-H3 VA
[1]
  binding result: binds
Human B7-H6
  binding result: no binding
Human B7-H7
  binding result: no binding
Human B7.1
  binding result: no binding
Human B7.2
  binding result: no binding
Human B7-H1
  binding result: no binding
Human B7-H2
  binding result: no binding
Human B7-H4
  binding result: no binding
Human B7-H5
  binding result: no binding

B8: anti-B7-H3 antibody (VA LALA clone) (antibody, V domains shown)
VH: B7 VH
VL: B7 VL
notes: also called B7-H3-VA LALA; B7-H3-VA-LALA
Human B7-H6
  binding result: no binding
Human B7-H7
  binding result: no binding
Human B7.1
  binding result: no binding
Human B7.2
  binding result: no binding
Human B7-H1
  binding result: no binding
Human B7-H2
  binding result: no binding
Human B7-H4
  binding result: no binding
Human B7-H5
  binding result: no binding
